Data on six proteins can be found in US20040235098A1, “Sulfotransferase sequence variants” (Mayo Foundation for Medical Education and Research, a …, priority 1998, published 2004).

Usually Km stands for the substrate concentration at which the rate is half of its maximum.

Common to all, as to assay type: biochemical, human
Substrate in data set [1]: O=[N+]([O-])c1ccc(O)cc1
In words: Substrate kinetics of recombinant SULT1A2*1. As to conditions: other: recombinant SULT1A2*1; 0.08 to 10.0 μM 4-nitrophenol; mean±SEM of nine.

Substrate in data set [2]: O=[N+]([O-])c1ccc(O)cc1
In words: Substrate kinetics of recombinant SULT1A2*2. The settings on record: other: recombinant SULT1A2*2; 1.0 to 1000 μM 4-nitrophenol; mean±SEM of nine.

Substrate in data set [3]: O=[N+]([O-])c1ccc(O)cc1
The data set can be described thus: Substrate kinetics of recombinant SULT1A2*3. The settings on record: other: recombinant SULT1A2*3; 0.08 to 10.0 μM 4-nitrophenol; mean±SEM of nine.

Substrate in data set [4]: O=[N+]([O-])c1ccc(O)cc1
In words: Substrate kinetics of recombinant SULT1A1*3. As to conditions: other: recombinant SULT1A1*3; 0.02 to 5.0 μM 4-nitrophenol; mean±SEM of nine.

Substrate in data set [5]: O=[N+]([O-])c1ccc(O)cc1
In words: Substrate kinetics of recombinant SULT1A1*1. As to conditions: other: recombinant SULT1A1*1; 0.02 to 5.0 μM 4-nitrophenol; mean±SEM of nine.

Substrate in data set [6]: O=[N+]([O-])c1ccc(O)cc1
The data set can be described thus: Substrate kinetics of recombinant SULT1A3. As to conditions: other: recombinant SULT1A3; 3.9 to 3000 μM 4-nitrophenol; mean±SEM of nine.

B1: SULT1A2*1 (Homo sapiens) (protein)
chain: MELIQDISRPPLEYVKGVPLIKYFAEALGPLQSFQARPDDLLISTYPKSGTTWVSQILDMIYQGGDLEKCHRAPIFMRVPFLEFKVPGIPSGMETLKNTPAPRLLKTHLPLALLPQTLLDQKVKVVYVARNAKDVAVSYYHFYHMAKVYPHPGTWESFLEKFMAGEVSYGSWYQHVQEWWELSRTHPVLYLFYEDMKENPKREIQKILEFVGRSLPEETVDLMVEHTSFKEMKKNPMTNYTTVRREFMDHSISPFMRKGMAGDWKTTFTVAQNERFDADYAKKMAGCSLSFRSEL
notes: made in house; host or cells: COS-1 cells, pCR3.1 vector, unpurified cytosol
As for B1, the Km in data set [1] turned out to be 8.70 ± 1.10 µM.

B2: SULT1A2*2 (Homo sapiens; I7T/N235T) (protein)
chain: MELIQDTSRPPLEYVKGVPLIKYFAEALGPLQSFQARPDDLLISTYPKSGTTWVSQILDMIYQGGDLEKCHRAPIFMRVPFLEFKVPGIPSGMETLKNTPAPRLLKTHLPLALLPQTLLDQKVKVVYVARNAKDVAVSYYHFYHMAKVYPHPGTWESFLEKFMAGEVSYGSWYQHVQEWWELSRTHPVLYLFYEDMKENPKREIQKILEFVGRSLPEETVDLMVEHTSFKEMKKTPMTNYTTVRREFMDHSISPFMRKGMAGDWKTTFTVAQNERFDADYAKKMAGCSLSFRSEL
notes: as for B1
For B2, the Km in data set [2] was found to be 373 ± 33 µM.

B3: SULT1A2*3 (Homo sapiens; P19L) (protein)
chain: MELIQDISRPPLEYVKGVLLIKYFAEALGPLQSFQARPDDLLISTYPKSGTTWVSQILDMIYQGGDLEKCHRAPIFMRVPFLEFKVPGIPSGMETLKNTPAPRLLKTHLPLALLPQTLLDQKVKVVYVARNAKDVAVSYYHFYHMAKVYPHPGTWESFLEKFMAGEVSYGSWYQHVQEWWELSRTHPVLYLFYEDMKENPKREIQKILEFVGRSLPEETVDLMVEHTSFKEMKKNPMTNYTTVRREFMDHSISPFMRKGMAGDWKTTFTVAQNERFDADYAKKMAGCSLSFRSEL
notes: as for B1
Turning to B3, the Km in data set [3] worked out at 5.65 ± 1.14 µM.

B4: SULT1A1*3 (Homo sapiens) (protein)
chain: MELIQDTSRPPLEYVKGVPLIKYFAEALGPLQSFQARPDDLLISTYPKSGTTWVSQILDMIYQGGDLEKCHRAPIFMRVPFLEFKAPGIPSGMETLKDTPAPRLLKTHLPLALLPQTLLDQKVKVVYVARNAKDVAVSYYHFYHMAKVHPEPGTWDSFLEKFMVGEVSYGSWYQHVQEWWELSRTHPVLYLFYEDMKENPKREIQKILEFVGRSLPEETVDFVVQHTSFKEMKKNPMTNYTTVPQEFMDHSISPFMRKGMAGDWKTTFTVAQNERFDADYAEKMAGCSLSFRSEL
notes: as for B1
On to B4, for which the Km in data set [4] was 0.31 ± 0.01 µM.

B5: SULT1A1*1 (Homo sapiens) (protein)
chain: MELIQDTSRPPLEYVKGVPLIKYFAEALGPLQSFQARPDDLLISTYPKSGTTWVSQILDMIYQGGDLEKCHRAPIFMRVPFLEFKAPGIPSGMETLKDTPAPRLLKTHLPLALLPQTLLDQKVKVVYVARNAKDVAVSYYHFYHMAKVHPEPGTWDSFLEKFMVGEVSYGSWYQHVQEWWELSRTHPVLYLFYEDMKENPKREIQKILEFVGRSLPEETVDFVVQHTSFKEMKKNPMTNYTTVPQEFMDHSISPFMRKGMAGDWKTTFTVAQNERFDADYAEKMAGCSLSFRSEL
notes: as for B1
Turning to B5, the Km in data set [5] came out at 0.88 ± 0.07 µM.

B6: SULT1A3 (Homo sapiens) (protein)
chain: MELIQDTSRPPLEYVKGVPLIKYFAEALGPLQSFQARPDDLLINTYPKSGTTWVSQILDMIYQGGDLEKCNRAPIYVRVPFLEVNDPGEPSGLETLKDTPPPRLIKSHLPLALLPQTLLDQKVKVVYVARNPKDVAVSYYHFHRMEKAHPEPGTWDSFLEKFMAGEVSYGSWYQHVQEWWELSRTHPVLYLFYEDMKENPKREIQKILEFVGRSLPEETMDFMVQHTSFKEMKKNPMTNYTTVPQELMDHSISPFMRKGMAGDWKTTFTVAQNERFDADYAEKMAGCSLSFRSEL
notes: as for B1
In the case of B6, in data set [6], the Km turned out to be 4960 ± 810 µM.
